Laboratory results as given in the supplement of paper PMC10567573.

B1: SLC19A2 (parent)
chain: IYPVWTYSYLVLLFPVFLATDYLR

Variants of: B1
Test: protein stability index of a GFP-peptide fusion (GPS, HEK-293T) (PSI 1-6); higher = more stable
Details: c terminus: a fixed tail appended
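Further: lentivirally expressed fusions sorted by FACS into six bins by GFP to DsRed ratio, PSI derived from sequencing read proportions per bin multiplied by bin number.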

Protein stability index: each site, then its substitutions
L12: M 2.48, P 3.92, N 1.72, D 2.3, K 3.56, R 2.37, I 3.39, Q 3.02, A 3.41, S 2.91, F 2.25, V 2.6
Y2: Q 3.11, S 2.56, M 3.15, T 4.06, K 2.44, P 2.62, I 4.61, E 2.56, V 3.19, L 2.15, W 3.59, F 3.09, G 1.97, D 2.77, A 3.21, H 2.29
Y9: N 3.02, T 2.67, K 2.81, V 3.11, L 2.46, D 3.8, C 4.17, M 2.97, E 2.2, I 3.67, R 4.42, F 1.75, H 2.97, Q 2.02
V11: C 3.16, W 4.19, A 3.63, D 3.85, L 2.77, H 3.87, I 3.28, F 2.34, M 1.95, G 3.44, Q 4.14, N 2.92, P 2.04
Y7: I 2.4, E 3.72, W 3.7, Q 2.58, R 3.07, H 1.33, N 3.72, F 2.84, M 2.32, T 2.58
T6: E 2.71, Y 3.51, R 2.39, S 2.86, L 4.55, Q 2.73, M 2.95, V 2.9, D 2.08, N 3.48, K 3.04, A 2.63, H 3.42
V4: S 3.21, G 3.35, A 2.73, Q 3.11, F 3.35, H 3.32, N 3.44, D 2.85, E 3.43, Y 2.91, M 2.76, L 3.73, C 2.33, I 3.46, T 3.3, K 2.96
W5: P 3.19, F 3.25, D 2.3, E 3.02, V 2.65, K 4.35, I 4.83, N 2.25, M 2.65, C 3.27, H 3.15, A 3.28, G 4.5, S 2.89, Y 2.72, R 3.39, L 2.19
I1: P 3.33, R 1.87, M 2.3, W 2.38, G 2.67, N 2.98, S 2.54, Y 1.63, H 4.44, V 4.95, T 3.48, F 2.21, A 2.12, L 3.49
S8: E 3.31, M 3.15, L 2.69, Q 3.59, F 2.43, W 2.99, I 2.41, G 2.84, K 3.14, A 4.5, C 3.17, P 3.7, R 3.57, H 3.06, D 3.67
P3: G 3.79, E 2.5, H 3.02, C 3.34, Y 2.94, S 3.26, K 2.02, L 3.98, N 2.57, W 3.05, A 3.47
L10: I 2.9, N 4.14, R 2.9, P 2.29, M 2.85, W 3.88, Y 3.63, K 1.93, S 3.94, G 3.23, H 3.75, D 4.06, T 2.94, V 3.74, Q 2.81, E 3.11
